Test results as given in US10766960 (dated 2020).
Substitutions are numbered along the chain they refer to. Where two headings read alike, the source gives them in different places.

Experiments:
Test in all cases: SPR
FcgRIIIa F [1] = molecular target: T1, FcgRIIIa F (human, UniProt P08637)
FcgRIIa R [2] = molecular target: T2, FcgRIIa R (human, UniProt P12318)
T2 chain: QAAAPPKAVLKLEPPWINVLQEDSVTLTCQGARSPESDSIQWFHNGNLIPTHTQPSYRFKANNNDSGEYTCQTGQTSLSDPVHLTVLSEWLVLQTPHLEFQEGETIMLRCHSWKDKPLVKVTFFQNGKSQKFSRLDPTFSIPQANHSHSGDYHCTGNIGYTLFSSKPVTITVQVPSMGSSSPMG

FcgRIIb [3] = molecular target: T3, FcgRIIb (human, UniProt P31994)
T3 chain: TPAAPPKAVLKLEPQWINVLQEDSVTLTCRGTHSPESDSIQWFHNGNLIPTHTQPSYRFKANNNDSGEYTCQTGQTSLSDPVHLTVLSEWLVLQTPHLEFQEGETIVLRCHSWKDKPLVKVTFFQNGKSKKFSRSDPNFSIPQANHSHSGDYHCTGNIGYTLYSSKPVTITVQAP

FcgRIIa H [4] = molecular target: T4, FcgRIIa H (human, UniProt P12318)
T4 chain: T2 chain with R134H

FcgRIa [5] = molecular target: T5, FcgRIa (human, UniProt P12314)
T5 chain: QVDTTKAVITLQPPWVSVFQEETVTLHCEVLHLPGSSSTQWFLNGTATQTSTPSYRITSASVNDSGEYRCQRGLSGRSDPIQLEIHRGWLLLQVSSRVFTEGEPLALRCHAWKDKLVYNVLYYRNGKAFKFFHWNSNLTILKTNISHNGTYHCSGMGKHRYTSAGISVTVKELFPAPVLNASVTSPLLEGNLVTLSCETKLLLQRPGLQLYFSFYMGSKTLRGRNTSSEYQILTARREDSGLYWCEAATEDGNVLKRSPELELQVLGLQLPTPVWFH

FcgRIIIa V [6] = molecular target: T6, FcgRIIIa V (human, UniProt P08637)
T6 sequence (P08637 17-208 F176V): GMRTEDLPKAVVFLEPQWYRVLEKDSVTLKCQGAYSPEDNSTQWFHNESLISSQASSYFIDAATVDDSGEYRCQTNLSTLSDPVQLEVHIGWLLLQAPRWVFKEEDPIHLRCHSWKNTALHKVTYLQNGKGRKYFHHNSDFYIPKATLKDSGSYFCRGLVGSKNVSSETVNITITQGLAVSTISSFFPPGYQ

FcgRIIIa V [7] = molecular target: T6, FcgRIIIa V; remark: listed apart in the source
FcgRIIa R [8] = molecular target: T2, FcgRIIa R
FcgRIIIa F [9] = molecular target: T1, FcgRIIIa F; remark: listed apart in the source
FcgRIIb [10] = molecular target: T3, FcgRIIb
FcgRIIa H [11] = molecular target: T4, FcgRIIa H
FcgRIa [12] = molecular target: T5, FcgRIa

T1 sequence (P08637 17-208): as the sequence (P08637 17-208 F176V) above, with V160F counted along it

B1: H240-Kn166/H240-Hl170/L73-k0 (antibody)
chain 1: QDQLVQSGAEVKKPGASVKVSCKASGFNIKDTYIQWVRQAPGQGLEWMGRIDPLRKQTKYREKFEGRVTITADTSTNTAYMELSSLRSEDTAVYYCVRSGREFDYWGQGTLVTVSSASTKGPSVFPLAPSSKSTSGGTAALGCLVKDYFPEPVTVSWNSGALTSGVHTFPAVLQSSGLYSLSSVVTVPSSSLGTQTYICNVNHKPSNTKVDKKVEPKSCDKTHTCPPCPAPEYYWGPMVFLFPPKPKDTLMISRTPEVTCVVVDVSDEDPEVKFNWYVDGVEVHNAKTKPREEQYNATYRVVSVLTVLHQDWLNGKEYKCKVSNKDAPAPIEKTISKAKGQPREPQVCTLPPSRDELTKNQVSLWCLVKGFYPSDIAVEWESNGQPENNYKTTPPVLDSDGSFFLYSKLTVDKSRWQQGNVFSCSVMHEALHNHYTQKSLSLSP
chain 2: QDQLVQSGAEVKKPGASVKVSCKASGFNIKDTYIQWVRQAPGQGLEWMGRIDPLRKQTKYREKFEGRVTITADTSTNTAYMELSSLRSEDTAVYYCVRSGREFDYWGQGTLVTVSSASTKGPSVFPLAPSSKSTSGGTAALGCLVKDYFPEPVTVSWNSGALTSGVHTFPAVLQSSGLYSLSSVVTVPSSSLGTQTYICNVNHKPSNTKVDKKVEPKSCDKTHTCPPCPAPELLGGPSVFLFPPKPKDTLMISRTPEVTCVVVDVSHEEPEVKFNWYVDGVEVHNAKTKPREEQYNSTYRVVSVLTVLHQDWLNGKEYKCKVSNDAAPKPIEETISKAKGQPREPQVYTLPPSRCELTKNQVSLSCAVKGFYPSDIAVEWESNGQPENNYKTTPPVLDSDGSFFLVSKLTVDKSRWQQGNVFSCSVMHEALHNHYTQKSLSLSP
chain 3: DIQMTQSPSSLSASVGDRVTITCRASQDIHKYIAWYQQKPGQAPRLLIQYTSTLQPGVPSRFSGSGSGTDYTFTISSLQPEDIATYYCLQYEQLRTFGGGTKVEIKRTVAAPSVFIFPPSDEQLKSGTASVVCLLNNFYPREAKVQWKVDNALQSGNSQESVTEQDSKDSTYSLSSTLTLSKADYEKHKVYACEVTHQGLSSPVTKSFNRGEC
Kd (FcgRIIIa F [1]): 4.2 nM | Kd (FcgRIIa R [2]): 31 nM | Kd (FcgRIIb [3]): 200 nM | Kd (FcgRIIa H [4]): 22 nM | Kd (FcgRIa [5]): 0.066 nM | Kd (FcgRIIIa V [6]): 1 nM

B2: H240-Kn208/H240-Hl214/L73-k0 (antibody)
chain 1: B1 chain 1 with Y233D, Y234Q, D269E, D326A, A327L
chain 2: B1 chain 2 with A327L, K329F
chain 3: B1 chain 3
Kd (FcgRIIIa V [7]): 0.9 nM | Kd (FcgRIIa R [8]): 720 nM | Kd (FcgRIIIa F [9]): 3 nM | Kd (FcgRIIb [10]): 4500 nM | Kd (FcgRIIa H [11]): 420 nM | Kd (FcgRIa [12]): 0.053 nM

B3: H240-Kn120/H240-Hl174/L73-k0 (antibody)
chain 1: B1 chain 1 with A327L
chain 2: B1 chain 2 with A327L, I331E
chain 3: B1 chain 3
Kd (FcgRIIIa F [1]): 0.51 nM | Kd (FcgRIIa R [2]): 30 nM | Kd (FcgRIIb [3]): 130 nM | Kd (FcgRIIa H [4]): 55 nM | Kd (FcgRIa [5]): 0.14 nM | Kd (FcgRIIIa V [6]): 0.036 nM

B4: H240-Kn198/H240-Hl210/L73-k0 (antibody)
chain 1: B1 chain 1 with Y233L, Y234Q, D269E, D326A, A327L
chain 2: B1 chain 2 with A327L, K329A
chain 3: B1 chain 3
Kd (FcgRIIIa V [7]): 1 nM | Kd (FcgRIIa R [8]): 480 nM | Kd (FcgRIIIa F [9]): 4.9 nM | Kd (FcgRIIb [10]): 3100 nM | Kd (FcgRIIa H [11]): 120 nM | Kd (FcgRIa [12]): 0.047 nM

B5: H240-Kn227/H240-Hl210/L73-k0 (antibody)
chain 1: B1 chain 1 with Y233E, Y234Q, M238I, D269E, D326A, A327L
chain 2: B1 chain 2 with A327L, K329A
chain 3: B1 chain 3
Kd (FcgRIIIa V [7]): 0.91 nM | Kd (FcgRIIa R [8]): 260 nM | Kd (FcgRIIIa F [9]): 4.4 nM | Kd (FcgRIIb [10]): 2500 nM | Kd (FcgRIIa H [11]): 230 nM | Kd (FcgRIa [12]): 0.17 nM

B6: H240-Kn120/H240-Hl150/L73-k0 (antibody)
chain 1: B1 chain 1 with A327L
chain 2: B1 chain 2 with A327L, I331T
chain 3: B1 chain 3
Kd (FcgRIIIa F [1]): 3 nM | Kd (FcgRIIa R [2]): 20 nM | Kd (FcgRIIb [3]): 98 nM | Kd (FcgRIIa H [4]): 35 nM | Kd (FcgRIa [5]): 0.39 nM | Kd (FcgRIIIa V [6]): 0.57 nM

B7: H240-Kn120/H240-Hl182/L73-k0 (antibody)
chain 1: B1 chain 1 with A327L
chain 2: B1 chain 2 with A230H, A327L
chain 3: B1 chain 3
Kd (FcgRIIIa F [1]): 3.1 nM | Kd (FcgRIIa R [2]): 40 nM | Kd (FcgRIIb [3]): 240 nM | Kd (FcgRIIa H [4]): 77 nM | Kd (FcgRIa [5]): 0.18 nM | Kd (FcgRIIIa V [6]): 0.29 nM

B8: H240-Kn228/H240-Hl210/L73-k0 (antibody)
chain 1: B1 chain 1 with Y233D, Y234Q, M238I, D269E, D326A, A327L
chain 2: B1 chain 2 with A327L, K329A
chain 3: B1 chain 3
Kd (FcgRIIIa V [7]): 0.81 nM | Kd (FcgRIIa R [8]): 200 nM | Kd (FcgRIIIa F [9]): 4.4 nM | Kd (FcgRIIb [10]): 1700 nM | Kd (FcgRIIa H [11]): 190 nM | Kd (FcgRIa [12]): 0.16 nM

B9: H240-Kn138/H240-Hl068/L73-k0 (antibody)
chain 1: B1 chain 1 with A327W
chain 2: B1 chain 2 with A327L
chain 3: B1 chain 3
Kd (FcgRIIIa F [1]): 3.7 nM | Kd (FcgRIIa R [2]): 19 nM | Kd (FcgRIIb [3]): 130 nM | Kd (FcgRIIa H [4]): 25 nM | Kd (FcgRIa [5]): 0.16 nM | Kd (FcgRIIIa V [6]): 0.43 nM

B10: H240-Kn200/H240-Hl068/L73-k0 (antibody)
chain 1: B1 chain 1 with Y233S, Y234Q, D269E, D326A, A327L
chain 2: B1 chain 2 with A327L
chain 3: B1 chain 3
Kd (FcgRIIIa V [7]): 1.2 nM | Kd (FcgRIIa R [8]): 280 nM | Kd (FcgRIIIa F [9]): 4.6 nM | Kd (FcgRIIb [10]): 2800 nM | Kd (FcgRIIa H [11]): 69 nM | Kd (FcgRIa [12]): 0.5 nM

B11: H240-Kn178/H240-Hl068/L73-k0 (antibody)
chain 1: B1 chain 1 with A327L, K333Y
chain 2: B1 chain 2 with A327L
chain 3: B1 chain 3
Kd (FcgRIIIa F [1]): 1.4 nM | Kd (FcgRIIa R [2]): 26 nM | Kd (FcgRIIb [3]): 110 nM | Kd (FcgRIIa H [4]): 65 nM | Kd (FcgRIa [5]): 0.23 nM | Kd (FcgRIIIa V [6]): 0.19 nM

B12: H240-Kn201/H240-Hl068/L73-k0 (antibody)
chain 1: B1 chain 1 with Y233F, Y234Q, D269E, D326A, A327L
chain 2: B1 chain 2 with A327L
chain 3: B1 chain 3
Kd (FcgRIIIa V [7]): 1.2 nM | Kd (FcgRIIa R [8]): 360 nM | Kd (FcgRIIIa F [9]): 5.3 nM | Kd (FcgRIIb [10]): 3900 nM | Kd (FcgRIIa H [11]): 56 nM | Kd (FcgRIa [12]): 0.26 nM

B13: H240-Kn172/H240-Hl177/L73-k0 (antibody)
chain 1: B1 chain 1 with A327L, I331M
chain 2: B1 chain 2 with A327L, I331Q
chain 3: B1 chain 3
Kd (FcgRIIIa F [1]): 2 nM | Kd (FcgRIIa R [2]): 29 nM | Kd (FcgRIIb [3]): 160 nM | Kd (FcgRIIa H [4]): 57 nM | Kd (FcgRIa [5]): 0.25 nM | Kd (FcgRIIIa V [6]): 0.22 nM

B14: H240-Kn232/H240-Hl068/L73-k0 (antibody)
chain 1: B1 chain 1 with Y233L, M238I, A327L
chain 2: B1 chain 2 with A327L
chain 3: B1 chain 3
Kd (FcgRIIIa V [7]): 0.86 nM | Kd (FcgRIIa R [8]): 17 nM | Kd (FcgRIIIa F [9]): 3 nM | Kd (FcgRIIb [10]): 190 nM | Kd (FcgRIIa H [11]): 25 nM | Kd (FcgRIa [12]): 0.23 nM

B15: H240-Kn200/H240-Hl210/L73-k0 (antibody)
chain 1: B1 chain 1 with Y233S, Y234Q, D269E, D326A, A327L
chain 2: B1 chain 2 with A327L, K329A
chain 3: B1 chain 3
Kd (FcgRIIIa V [7]): 1.2 nM | Kd (FcgRIIa R [8]): 480 nM | Kd (FcgRIIIa F [9]): 5.7 nM | Kd (FcgRIIb [10]): 2600 nM | Kd (FcgRIIa H [11]): 170 nM | Kd (FcgRIa [12]): 0.18 nM

B16: H240-Kn173/H240-Hl068/L73-k0 (antibody)
chain 1: B1 chain 1 with A327L, I331Q
chain 2: B1 chain 2 with A327L
chain 3: B1 chain 3
Kd (FcgRIIIa F [1]): 1.8 nM | Kd (FcgRIIa R [2]): 40 nM | Kd (FcgRIIb [3]): 280 nM | Kd (FcgRIIa H [4]): 57 nM | Kd (FcgRIa [5]): 0.12 nM | Kd (FcgRIIIa V [6]): 0.4 nM

B17: H240-Kn138/H240-Hl147/L73-k0 (antibody)
chain 1: B1 chain 1 with A327W
chain 2: B1 chain 2 with A327W
chain 3: B1 chain 3
Kd (FcgRIIIa F [1]): 22 nM | Kd (FcgRIIa R [2]): 11 nM | Kd (FcgRIIb [3]): 110 nM | Kd (FcgRIIa H [4]): 130 nM | Kd (FcgRIa [5]): 0.31 nM | Kd (FcgRIIIa V [6]): 16 nM
